In article PMC7719173:

Biological target: human TRAPPII complex (TRAPPC1, TRAPPC2, TRAPPC2L, TRAPPC3, TRAPPC4, TRAPPC5, TRAPPC6A, TRAPPC9, TRAPPC10) (human) (UniProt Q9Y5R8)

catalytic efficiency (kcat/Km) of TRAPPII-catalysed release of Mant-GDP from 4 µM Rab-His6 in solution, TRAPPII 19–300 nM: 2900 M⁻¹ s⁻¹
Substance: Rab11 (from UniProt P62491 1-216) (natural protein)
